Article PMC11957191

Columns and labels:
[1] = target: myristoylated human Arf1 (myrArf1), GTP-bound form at a membrane surface (human) (UniProt P84077); assay: not stated; binding test of the K391A mutant shown in Fig. SI5; method not given
[2] = target: myristoylated human Arf1 (myrArf1), GTP-bound form at a membrane surface (human) (UniProt P84077)
[3] = target: myrArf1 with Glu54 mutated to Ala (human) (UniProt P84077)
[4] = target: myristoylated human Arf1 (myrArf1), GTP-bound form at a membrane surface (human) (UniProt P84077); remark: listed apart in the source

Chain of myristoylated human Arf1 (myrArf1), GTP-bound form at a membrane surface (human) (P84077 whole entry): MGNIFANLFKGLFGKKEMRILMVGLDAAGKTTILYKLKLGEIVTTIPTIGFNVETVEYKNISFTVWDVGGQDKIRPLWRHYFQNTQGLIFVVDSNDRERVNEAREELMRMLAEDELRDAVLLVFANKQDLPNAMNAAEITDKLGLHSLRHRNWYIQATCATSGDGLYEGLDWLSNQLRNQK
Chain of ΔN14PZA, ASAP1 PZA without residues 325–338 (Q9QWY8 339-724, stated change not applied): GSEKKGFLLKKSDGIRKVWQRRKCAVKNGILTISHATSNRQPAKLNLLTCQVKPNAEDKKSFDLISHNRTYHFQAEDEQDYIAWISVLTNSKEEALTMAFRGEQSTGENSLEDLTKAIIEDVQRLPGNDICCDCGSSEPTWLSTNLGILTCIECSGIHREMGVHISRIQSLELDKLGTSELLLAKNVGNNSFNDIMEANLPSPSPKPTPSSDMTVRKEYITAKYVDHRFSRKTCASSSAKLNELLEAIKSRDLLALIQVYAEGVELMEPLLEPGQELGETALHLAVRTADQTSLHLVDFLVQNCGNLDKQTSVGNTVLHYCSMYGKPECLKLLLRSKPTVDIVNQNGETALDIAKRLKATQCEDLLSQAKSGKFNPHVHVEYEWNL
Chain of ASAP1 PZA with Phe438 mutated to Ala (Q9QWY8 other isoform, or with tags, fused parts or gaps, change not shown): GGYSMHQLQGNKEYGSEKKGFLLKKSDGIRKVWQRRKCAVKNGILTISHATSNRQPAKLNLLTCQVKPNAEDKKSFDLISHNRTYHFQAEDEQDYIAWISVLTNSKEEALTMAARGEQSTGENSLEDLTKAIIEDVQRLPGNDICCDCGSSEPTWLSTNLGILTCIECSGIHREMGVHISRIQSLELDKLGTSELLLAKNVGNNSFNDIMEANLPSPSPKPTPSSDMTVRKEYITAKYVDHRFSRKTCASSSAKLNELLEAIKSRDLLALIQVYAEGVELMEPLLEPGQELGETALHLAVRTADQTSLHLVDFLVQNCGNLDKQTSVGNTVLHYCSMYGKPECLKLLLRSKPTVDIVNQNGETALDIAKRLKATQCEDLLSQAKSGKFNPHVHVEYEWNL
Chain of myrArf1 with Glu54 mutated to Ala (human) (P84077 other isoform, or with tags, fused parts or gaps, change not shown): as the sequence (P84077 whole entry) above, with E54A counted along it
Chain of ASAP1 PZA with His405 mutated to Glu (Q9QWY8 other isoform, or with tags, fused parts or gaps, change not shown): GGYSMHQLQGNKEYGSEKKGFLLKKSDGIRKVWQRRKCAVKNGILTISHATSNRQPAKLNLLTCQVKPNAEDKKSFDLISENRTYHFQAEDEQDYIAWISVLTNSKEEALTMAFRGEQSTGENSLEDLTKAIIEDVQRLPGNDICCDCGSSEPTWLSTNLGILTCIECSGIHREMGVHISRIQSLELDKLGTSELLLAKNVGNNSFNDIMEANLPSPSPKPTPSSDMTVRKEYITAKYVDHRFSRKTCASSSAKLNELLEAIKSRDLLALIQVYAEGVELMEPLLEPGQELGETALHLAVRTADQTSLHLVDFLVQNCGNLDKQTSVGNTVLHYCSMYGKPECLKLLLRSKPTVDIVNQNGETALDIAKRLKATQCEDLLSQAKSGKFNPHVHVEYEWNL
Chain of ASAP1 PZA with Lys391 mutated to Ala (Q9QWY8 other isoform, or with tags, fused parts or gaps, change not shown): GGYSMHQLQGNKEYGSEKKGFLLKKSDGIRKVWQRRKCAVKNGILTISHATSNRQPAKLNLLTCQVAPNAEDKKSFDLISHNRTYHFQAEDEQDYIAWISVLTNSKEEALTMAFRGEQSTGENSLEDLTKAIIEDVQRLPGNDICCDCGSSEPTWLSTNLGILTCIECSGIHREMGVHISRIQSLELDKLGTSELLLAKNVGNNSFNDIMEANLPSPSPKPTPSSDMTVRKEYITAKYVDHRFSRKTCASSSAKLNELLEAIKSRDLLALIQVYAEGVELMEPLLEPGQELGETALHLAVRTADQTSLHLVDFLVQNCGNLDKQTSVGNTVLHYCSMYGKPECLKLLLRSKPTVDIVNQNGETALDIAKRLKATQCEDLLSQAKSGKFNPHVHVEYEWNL
Chain of wt PZA, [325–724]ASAP1 (PH domain, Arf GAP zinc-binding domain and ankyrin repeats) (Q9QWY8 325-724): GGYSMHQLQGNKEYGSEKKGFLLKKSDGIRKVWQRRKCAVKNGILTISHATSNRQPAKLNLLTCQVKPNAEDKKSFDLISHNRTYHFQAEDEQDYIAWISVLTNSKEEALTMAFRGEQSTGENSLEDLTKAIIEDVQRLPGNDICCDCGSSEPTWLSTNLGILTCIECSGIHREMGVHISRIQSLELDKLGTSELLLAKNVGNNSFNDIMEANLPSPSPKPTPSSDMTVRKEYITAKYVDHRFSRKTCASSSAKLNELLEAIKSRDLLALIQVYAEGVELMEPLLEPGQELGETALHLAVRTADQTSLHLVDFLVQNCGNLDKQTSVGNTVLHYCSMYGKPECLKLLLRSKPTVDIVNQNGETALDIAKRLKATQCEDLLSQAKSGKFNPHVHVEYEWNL

| Substance | ArfGAP activity (C50 of PZA for 50% GTP hydrolysis in 3 min), fold reduction against wild type [2] | further results |
| --- | --- | --- |
| ASAP1 PH domain with Lys391 mutated to Ala (from UniProt Q9QWY8 325-451) (domain or fragment) | – | fold reduction of binding against wild type [1]: 2 fold |
| ASAP1 PZA with His405 mutated to Glu (from UniProt Q9QWY8 325-724) (domain or fragment) | 5 fold | – |
| ASAP1 PZA with Lys391 mutated to Ala (from UniProt Q9QWY8 325-724) (domain or fragment) | 100 fold | – |
| ASAP1 PZA with Phe438 mutated to Ala (from UniProt Q9QWY8 325-724) (domain or fragment) | 15 fold | – |
| wt PZA, [325–724]ASAP1 (PH domain, Arf GAP zinc-binding domain and ankyrin repeats) (from UniProt Q9QWY8 325-724) (domain or fragment) | – | ArfGAP activity (C50 of PZA for 50% GTP hydrolysis in 3 min), fold reduction against wild type [3]: 70 fold |
| ΔN14PZA, ASAP1 PZA without residues 325–338 (from UniProt Q9QWY8 339-724) (domain or fragment) | – | GAP activity on myrArf1·GTP relative to wt PZA (fold of wt PZA) [4]: < 0.01 |
